Patent US20180187272A1

Biological target: Ste2 GPCR (Saccharomyces cerevisiae) (UniProt D6VTK4)
Test: cell-based or functional assay

Ste2 GPCR (Saccharomyces cerevisiae), sequence (D6VTK4 whole entry): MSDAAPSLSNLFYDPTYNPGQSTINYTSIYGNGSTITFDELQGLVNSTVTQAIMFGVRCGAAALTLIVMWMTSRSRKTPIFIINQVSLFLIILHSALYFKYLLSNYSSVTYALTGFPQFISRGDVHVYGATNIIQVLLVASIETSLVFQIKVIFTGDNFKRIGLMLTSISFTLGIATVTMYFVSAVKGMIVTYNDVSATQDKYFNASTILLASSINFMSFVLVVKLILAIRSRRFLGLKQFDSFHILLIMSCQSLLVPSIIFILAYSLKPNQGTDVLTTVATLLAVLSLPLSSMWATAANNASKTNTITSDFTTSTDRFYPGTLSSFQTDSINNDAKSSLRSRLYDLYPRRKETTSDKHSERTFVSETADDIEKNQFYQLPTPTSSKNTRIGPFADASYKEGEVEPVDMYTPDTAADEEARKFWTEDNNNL

In the case of “α-factor (from UniProt P01149 90-102) (peptide)”, the GFP max (AU), PFig1-GFP(m) is reported as 7570 AU, the GFP max (AU), PFig1-GFP(s) is reported as 2310 AU and the GFP max (AU), PFus1-GFP(m) is reported as 20500 AU. For the same substance, the GFP max (AU), PFus1-GFP(s) was 4560 AU, the KM (chemical concentration at half maximal signal), GFP reporter PFig1-GFP(m), flow cytometry was 0.02 µM and the KM (chemical concentration at half maximal signal), GFP reporter PFig1-GFP(s), flow cytometry was 0.03 µM. For the same substance, the KM (chemical concentration at half maximal signal), GFP reporter PFus1-GFP(m), flow cytometry was 0.02 µM and the KM (chemical concentration at half maximal signal), GFP reporter PFus1-GFP(s), flow cytometry was 0.02 µM.
